Assay results: paper PMC2568864, “Chemical Dissection of the Link between Streptozotocin, O-GlcNAc, and Pancreatic Cell Death” (Chemistry & Biology, 2008)

Substrate: CC(=O)N[C@H]1[C@H](Oc2ccc3c(C)cc(=O)oc3c2)O[C@H](CO)[C@@H](O)[C@@H]1O
Assay: purified protein

B1: human O-GlcNAcase (hOGA) (Homo sapiens) (protein)
chain: AAGGARRFLCGVVEGFYGRPWVMEQRKELFRRLQKWELNTYLYAPKDDYKHRMFWREMYSVEEAEQLMTLISAAREYEIEFIYAISPGLDITFSNPKEVSTLKRKLDQVSQFGCRSFALLFDDIDHNMCAADKEVFSSFAHAQVSITNEIYQYLGEPETFLFCPTEYCGTFCYPNVSQSPYLRTVGEKLLPGIEVLWTGPKVVSKEIPVESIEEVSKIIKRAPVIWDNIHANDYDQKRLFLGPYKGRSTELIPRLKGVLTNPNCEFEANYVAIHTLATWYKSNMNGVRKDVVMTDSEDSTVSIQIKLENEGSDEDIETDVLYSPQMALKLALTEWLQEFGVPHQYSSRQVAHSGAKASVVDGTPLVAAPSLNATTVVTTVYQEPIMSQGAALSGEPTTLTKEEEKKQPDEEPMDMVVEKQEETDHKNDNQILSEIVEAKMAEELKPMDTDKESIAESKSPEMSMQEDCISDIAPMQTDEQTNKEQFVPGPNEKPLYTAEPVTLEDLQLLADLFYLPYEHGPKGAQMLREFQWLRANSSVVSVNCKGKDSEKIEEWRSRAAKFEEMCGLVMGMFTRLSNCANRTILYDMYSYVWDIKSIMSMVKSFVQWLGCRSHSSAQFLIGDQEPWAFRGGLAGEFQRLLPIDGANDLFFQPPPLTPTSKVYTIRPYFPKDEASVYKICREMYDDGVGLPFQSQPDLIGDKLVGGLLSLSLDYCFVLEDEDGICGYALGTVDVTPFIKKCKISWIPFMQEKYTKPNGDKELSEAEKIMLSFHEEQEVLPETFLANFPSLIKMDIHKKVTDPSVAKSMMACLLSSLKANGSRGAFCEVRPDDKRILEFYSKLGCFEIAKMEGFPKDVVILGRSL
Km: 80 ± 6 µM
